Assay results reported in paper PMC6017478, “Exploring Alternative Radiolabeling Strategies for Sialic Acid-Binding Immunoglobulin-Like Lectin 9 Peptide: [^68Ga]Ga- and [^18F]AlF-NOTA-Siglec-9” (Molecules : A Journal of Synthetic Chemistry and Natural …, 2018).
Positions of bridges follow the written chain, without caps; N, C: chain ends. Residues, ends and D or L forms follow the SMILES beside them. Groups on a side chain read outwards from the residue. *: point of attachment. NOTA = O=C(O)CN1CCN(CC(=O)O)CCN(CC(=O)*)CC1; AEEA = NCCOCCOCC(=O)O

What was measured:
[1] = type: physicochemical; conditions: pH 7.6
Protocol: The distribution coefficient (Log D) was measured by adding 5 kBq of tracer into a mixture of PBS (pH 7.6) and 1-octanol (1:1, v/v). The solution was mixed thoroughly for 5 min at room temperature. After separation of phases by centrifugation (12,000× g, 6 min), 100 µL aliquots of each phase layer were taken for γ-counting to determine Log D. The test was repeated three times. Log D was calculated as Log D=log10 counts per minute in octanol/counts per minute in PBS .

[2] = rat, in vivo, iv
Protocol: The rats were subcutaneously injected with 50 µL turpentine oil (Sigma-Aldrich) into the right shoulder area (foreleg) to induce skin/muscle inflammation, which was allowed to develop for 24 h prior to PET imaging. For imaging and ex vivo analysis, the rats were anesthetized using isoflurane and intravenously injected with 17.7 ± 3.4 MBq of one of the two radiotracers via the tail vein cannula. Immediately after injection a dynamic 60-min PET scan was performed on four rats for [^68Ga]Ga-NOTA-Siglec-9 and four rats for [^18F]AlF-NOTA-Siglec-9. The data were acquired in list-mode and iteratively reconstructed with a 3-D ordered subsets expectation maximization algorithm with 8 iterations, 16 subsets, and a 2-mm full-width at half-maximum post-filter into 6 × 10 s, 4 × 60 s, 5 × 300 s, and 3 × 600 s time frames. After imaging, the rats were euthanized, and various tissues, including inflamed skin/muscle (inflamed area) from the right foreleg, skin from the left foreleg (control area), and healthy muscle from the left hind leg, were excised, weighed, and measured with a γ-counter. The ex vivo radioactivity measurements were decay-corrected from the time of injection, and the results were expressed as SUV. Plasma protein binding was measured from plasma samples taken from 60 min post-injections. […] Radioactivity of both the precipitate and the supernatant was measured by γ-counting.

SMILES: CC(C)C[C@@H]1NC(=O)CNC(=O)[C@H](CCCNC(=N)N)NC(=O)[C@H](Cc2c[nH]c3ccccc23)NC(=O)[C@H](CO)NC(=O)[C@H](CC(C)C)NC(=O)[C@H](CO)NC(=O)[C@H](CC(C)C)NC(=O)[C@H](CCCNC(=N)N)NC(=O)[C@H](C)NC(=O)[C@@H](N)CSSC[C@@H](C(=O)N2CCC[C@H]2C(=O)N[C@@H](CO)C(=O)N[C@@H](CCCCNC(=O)COCCOCCNC(=O)CN2CCN(CC(=O)O)CCN(CC(=O)O)CC2)C(=O)O)NC(=O)[C@H](CC(C)C)NC(=O)[C@H]([C@@H](C)O)NC1=O [[^68Ga]Ga-NOTA-Siglec-9] [metal not drawn] (H-CARLSLSWRGLTLCPSK([AEEA-NOTA])-OH; disulfide 1-14)
- Log D [1]: −3.2 ± 0.3
- Plasma protein binding [2]: 31.4 ± 3.4%
